Measurements from PMC6615629, “Hsp70-nucleotide exchange factor (NEF) Fes1 has non-NEF roles in degradation of gluconeogenic enzymes and cell wall integrity” (PLoS Genetics, 2019).

Tests used:
Conditions in all cases: both partners purified
[1] = target: T1, Ssa1 (yeast (S. cerevisiae), UniProt P10591 1-642); assay: pull-down; GST-Fes1 (wild type or mutant, or GST alone) pulled down on glutathione resin; reactions with two or all three proteins; 6 μg each of His6-Fbp1 (1.6 μM), Hsp70 (0.9 μM) and GST-Fes1 (1.09 μM), with or without ATP, ADP or AMP (2.5 mM); 50 mM Tris-HCl pH 7.5, 150 mM NaCl, 2% glycerol, 5 mM MgCl2; 30 min at 4°C; stained SDS-PAGE gels
T1 construct: Ssa1, yeast cytosolic Hsp70; non-tagged; also called Hsp70; source: E. coli Rosetta 2(DE3), purified as described [51]

[2] = target: T2, Ssa2 (yeast (S. cerevisiae), UniProt P10592 1-639); assay: as above
T2 construct: Ssa2, yeast cytosolic Hsp70; non-tagged; also called Hsp70; source: E. coli Rosetta 2(DE3), purified as described [51]

[3] = target: T3, His6-Fbp1 (yeast (S. cerevisiae), UniProt P09201 1-348); assay: pull-down; His6-Fbp1 (wild type or mutant) pulled down on Talon metal affinity resin; reactions with two or all three proteins; 6 μg each of His6-Fbp1 (1.6 μM), Hsp70 (0.9 μM) and GST-Fes1 (1.09 μM), with or without ATP, ADP or AMP (2.5 mM); 50 mM Tris-HCl pH 7.5, 150 mM NaCl, 2% glycerol, 5 mM MgCl2; 30 min at 4°C; washed with 5 mM imidazole, eluted with 250 mM imidazole; stained SDS-PAGE gels, bands quantified …
T3 construct: Fbp1, yeast gluconeogenic enzyme; the initiator methionine is present in the purified protein and is counted as residue 1; also called wild type His6-Fbp1; not shown: His6, N-terminal, kept
T3 sequence (looked up): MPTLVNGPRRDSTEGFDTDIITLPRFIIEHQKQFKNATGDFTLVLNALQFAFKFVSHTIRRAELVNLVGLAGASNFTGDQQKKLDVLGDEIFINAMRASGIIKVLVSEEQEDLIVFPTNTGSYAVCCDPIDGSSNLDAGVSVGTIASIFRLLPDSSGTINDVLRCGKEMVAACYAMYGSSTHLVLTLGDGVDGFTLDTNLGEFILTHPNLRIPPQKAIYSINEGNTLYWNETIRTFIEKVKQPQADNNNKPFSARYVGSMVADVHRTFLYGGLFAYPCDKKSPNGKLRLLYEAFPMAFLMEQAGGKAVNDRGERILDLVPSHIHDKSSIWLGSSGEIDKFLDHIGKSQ

T2 sequence (P10592 whole entry): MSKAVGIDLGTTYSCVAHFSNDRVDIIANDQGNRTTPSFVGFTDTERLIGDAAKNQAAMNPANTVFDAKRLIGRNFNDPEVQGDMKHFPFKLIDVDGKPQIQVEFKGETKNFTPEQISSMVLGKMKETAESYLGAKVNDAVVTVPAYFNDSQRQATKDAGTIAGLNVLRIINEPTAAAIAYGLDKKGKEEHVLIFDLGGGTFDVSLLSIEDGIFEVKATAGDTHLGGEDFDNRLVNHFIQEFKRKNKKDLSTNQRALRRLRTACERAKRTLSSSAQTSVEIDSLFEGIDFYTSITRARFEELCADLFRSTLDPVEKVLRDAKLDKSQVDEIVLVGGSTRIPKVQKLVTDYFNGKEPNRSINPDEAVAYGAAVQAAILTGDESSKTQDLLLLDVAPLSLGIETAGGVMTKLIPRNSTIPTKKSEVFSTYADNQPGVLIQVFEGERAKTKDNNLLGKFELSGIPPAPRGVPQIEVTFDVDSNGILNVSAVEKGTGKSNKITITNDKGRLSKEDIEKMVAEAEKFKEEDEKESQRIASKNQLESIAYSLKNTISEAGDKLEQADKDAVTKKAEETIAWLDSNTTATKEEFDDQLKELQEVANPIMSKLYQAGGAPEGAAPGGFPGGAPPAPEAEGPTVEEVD
T1 sequence (P10591 whole entry): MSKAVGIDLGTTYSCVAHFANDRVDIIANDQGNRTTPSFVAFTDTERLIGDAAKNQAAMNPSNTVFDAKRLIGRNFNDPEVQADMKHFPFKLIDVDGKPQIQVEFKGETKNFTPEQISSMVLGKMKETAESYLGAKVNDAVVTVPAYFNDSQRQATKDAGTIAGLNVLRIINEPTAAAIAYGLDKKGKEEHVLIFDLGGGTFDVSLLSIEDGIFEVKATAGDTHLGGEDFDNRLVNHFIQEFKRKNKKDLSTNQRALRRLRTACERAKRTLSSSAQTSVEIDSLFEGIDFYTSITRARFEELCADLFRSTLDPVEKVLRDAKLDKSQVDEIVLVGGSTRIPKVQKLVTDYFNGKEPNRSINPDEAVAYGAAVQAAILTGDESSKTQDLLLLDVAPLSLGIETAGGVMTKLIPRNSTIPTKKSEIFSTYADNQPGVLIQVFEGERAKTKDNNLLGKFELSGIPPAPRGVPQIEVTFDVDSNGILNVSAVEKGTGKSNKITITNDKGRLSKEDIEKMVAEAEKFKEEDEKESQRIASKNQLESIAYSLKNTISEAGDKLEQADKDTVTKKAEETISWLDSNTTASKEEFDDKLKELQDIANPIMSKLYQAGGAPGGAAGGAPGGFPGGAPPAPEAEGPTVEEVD

binding result [1]: binds
binding result [2]: binds
ratio of amounts Fes1/Ssa1 pulled down by Fbp1, no nucleotide [3]: 0.23
ratio of amounts Fes1/Ssa1 pulled down by Fbp1, with ADP [3]: 0.5
ratio of amounts Fes1/Ssa1 pulled down by Fbp1, with AMP [3]: 0.18
ratio of amounts Fes1/Ssa1 pulled down by Fbp1, with ATP [3]: 0.58
ratio of amounts Fes1/Ssa2 pulled down by Fbp1, no nucleotide [3]: 0.33
ratio of amounts Fes1/Ssa2 pulled down by Fbp1, with ADP [3]: 0.67
ratio of amounts Fes1/Ssa2 pulled down by Fbp1, with AMP [3]: 0.32
ratio of amounts Fes1/Ssa2 pulled down by Fbp1, with ATP [3]: 0.79
B1: GST-Fes1 (natural protein, yeast (S. cerevisiae), UniProt P38260 1-290, looked up)
chain: MEKLLQWSIANSQGDKEAMARAGQPDPKLLQQLFGGGGPDDPTLMKESMAVIMNPEVDLETKLVAFDNFEMLIENLDNANNIENLKLWEPLLDVLVQTKDEELRAAALSIIGTAVQNNLDSQNNFMKYDNGLRSLIEIASDKTKPLDVRTKAFYALSNLIRNHKDISEKFFKLNGLDCIAPVLSDNTAKPKLKMRAIALLTAYLSSVKIDENIISVLRKDGVIESTIECLSDESNLNIIDRVLSFLSHLISSGIKFNEQELHKLNEGYKHIEPLKDRLNEDDYLAVKYVL
notes: Fes1, yeast Hsp70 nucleotide exchange factor; also called wild type GST-Fes1; source: E. coli expression, purified as described [15]; not shown: GST, N-terminal, kept
